The subject of data set [1] is tumour. Particulars: in vivo; cited from earlier work.
Data set [2] is described as follows: Extended single-dose toxicity study in Wistar rats. Particulars: male, rat, in vivo, intravenous, for humans. As for the experimental part:
The first clinical dose for the therapeutic application was established based on a previous extended singe-dose toxicity study performed on the chemical precursor DOTA-MGS5 in a GLP-compliant laboratory (BSL BIOSERVICE Scientific Laboratories Munich GmbH, Planegg/Munich, Germany). According to applicable guidelines a targeted programme of non-clinical testing was followed. The safety was assessed in a single species and no repeated dose study was performed, as complete clearance between administrations is expected. The study was conducted in male Wister rats and included three dose groups and one control group. The histopathological examination was focused on the main target organs.

Details of data set [3]: method as in PMID 34208516. Particulars: established for humans from the rat study; cited from earlier work.
In data set [4] the test system is A431-CCK2R cells. Particulars: cited from earlier work.
Data set [5] has as its system A431-CCK2R xenografts. Particulars: in vivo; cited from earlier work.

Non-standard residues stand in square brackets, D forms with d. *: point of attachment. DOTA = O=C(O)CN1CCN(CC(=O)O)CCN(CC(=O)*)CCN(CC(=O)O)CC1

In general, Kd refers to a measure of binding affinity in units of concentration.

Take “[^111In]In-DOTA-MG11: 111In-labelled DOTA-MG11 (DOTA-DGlu-Ala-Tyr-Gly-Trp-Met-Asp-Phe-NH2) ({DOTA}-[dE]AYGWMDF-NH2; also: 111In complexed by DOTA)”: in data set [1], the tumour uptake is on record as 2–3 % ID/g.

The compound `CCCC[C@@H](C(=O)N[C@@H](CC(=O)O)C(=O)N[C@@H](Cc1cccc2ccccc12)C(N)=O)N(C)C(=O)[C@H](Cc1c[nH]c2ccccc12)NC(=O)CNC(=O)[C@H](Cc1ccc(O)cc1)NC(=O)[C@H](C)NC(=O)[C@@H](CCC(=O)O)NC(=O)CN1CCN(CC(=O)O)CCN(CC(=O)O)CCN(CC(=O)O)CC1` [DOTA-MGS5, DOTA-DGlu-Ala-Tyr-Gly-Trp-(N-Me)Nle-Asp-1-Nal-NH2] returned a 1/100 of NOAEL in data set [2] of 4 µg/kg. Moreover, the “NOAEL (no observed adverse effect level)” value in data set [3] is reported as 0.4 mg/kg body weight.

As for “[^177Lu]Lu-DOTA-PP-F11N: 177Lu-labelled DOTA-(DGlu)6-Ala-Tyr-Gly-Trp-Nle-Asp-Phe-NH2 (AYGW; 177Lu-DOTA-(DGlu)6, Nle-Asp-Phe-NH2; printed: Ala-Tyr-Gly-Trp-)”, the Bmax in data set [4] (A431-CCK2R cells, nM printed only with the first value of the sentence) is listed as 0.54 ± 0.10 nM. Moreover, the dissociation constant Kd in data set [4] (same cell line (A431-CCK2R), nM printed only with the PP-F11N value) is 50 ± 7.3 nM. For the same compound, the tumour uptake in data set [5] is on record as ~ 7 %ID/g.

The values above are taken from paper PMC11839890 (European Journal of Nuclear Medicine and Molecular Imaging, 2024).
